The record followed here is PMC11695723, “MCM2-7 ring closure involves the Mcm5 C-terminus and triggers Mcm4 ATP hydrolysis” (Nature Communications, 2025).

Holding throughout (conditions): both partners purified
Assay [1] has as its target T1, Origin Recognition Complex (ORC) (UniProt P54784 1-914; P32833 1-620; P54790 1-616; P54791 1-529; P50874 1-479; P38826 …).
T1 construct: Orc1; Orc2; Orc3; Orc4; Orc5; Orc6; in all assays ORC stood with ARS1 DNA; source: Hi-5 cells, baculovirus (Orc1,6; Orc2,5; Orc3,4), purified (ammonium sulphate, SP Sepharose, Mono Q, Superdex 200); copies: + + + + +
Nature of the assay: cryo-EM structure; closed-gate OCCM (ORC-Cdc6-Cdt1-MCM2-7) on ARS1 DNA with ATPγS; focused 3D classification of the particles of ref. 13; about 10% of the particles; 6.1 Å.

The target in a further assay is T2, MCM2-7 (wild type) (S. cerevisiae, UniProt P29469 1-868; P24279 1-971; P30665 1-933; P29496 1-775; P53091 1-1017; P38132 …).
T2 construct: Mcm2, S. cerevisiae; Mcm3, S. cerevisiae; Mcm4, S. cerevisiae; Mcm5, S. cerevisiae; Mcm6, S. cerevisiae; Mcm7, S. cerevisiae; hetero-hexamer; plasmids and strains are in Supplementary Data 1; also called WT MCM2-7; copies: + + + + +
T2 sequence (P29469 whole entry, chain 1 of 3): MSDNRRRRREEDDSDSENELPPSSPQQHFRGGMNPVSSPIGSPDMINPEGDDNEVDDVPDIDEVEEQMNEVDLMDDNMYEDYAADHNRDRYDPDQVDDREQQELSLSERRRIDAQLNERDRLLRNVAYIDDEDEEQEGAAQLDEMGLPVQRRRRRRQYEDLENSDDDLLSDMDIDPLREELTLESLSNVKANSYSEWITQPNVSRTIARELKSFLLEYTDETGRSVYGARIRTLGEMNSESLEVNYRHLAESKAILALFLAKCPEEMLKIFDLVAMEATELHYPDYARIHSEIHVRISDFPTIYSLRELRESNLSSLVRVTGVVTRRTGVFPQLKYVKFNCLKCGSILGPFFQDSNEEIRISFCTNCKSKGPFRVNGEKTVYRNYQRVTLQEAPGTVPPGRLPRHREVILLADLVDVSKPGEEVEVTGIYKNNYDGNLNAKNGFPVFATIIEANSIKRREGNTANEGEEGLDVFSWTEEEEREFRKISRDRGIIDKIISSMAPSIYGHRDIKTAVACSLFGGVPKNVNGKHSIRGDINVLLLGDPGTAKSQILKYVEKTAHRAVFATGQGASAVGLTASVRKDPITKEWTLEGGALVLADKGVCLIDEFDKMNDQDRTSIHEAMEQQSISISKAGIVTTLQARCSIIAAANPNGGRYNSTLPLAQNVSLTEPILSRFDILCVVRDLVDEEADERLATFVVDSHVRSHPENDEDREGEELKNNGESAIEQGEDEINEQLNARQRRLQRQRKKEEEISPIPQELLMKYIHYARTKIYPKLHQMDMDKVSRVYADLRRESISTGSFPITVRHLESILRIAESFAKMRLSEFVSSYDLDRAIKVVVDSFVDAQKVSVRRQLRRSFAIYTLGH
T2 sequence (P24279 whole entry, chain 2 of 3): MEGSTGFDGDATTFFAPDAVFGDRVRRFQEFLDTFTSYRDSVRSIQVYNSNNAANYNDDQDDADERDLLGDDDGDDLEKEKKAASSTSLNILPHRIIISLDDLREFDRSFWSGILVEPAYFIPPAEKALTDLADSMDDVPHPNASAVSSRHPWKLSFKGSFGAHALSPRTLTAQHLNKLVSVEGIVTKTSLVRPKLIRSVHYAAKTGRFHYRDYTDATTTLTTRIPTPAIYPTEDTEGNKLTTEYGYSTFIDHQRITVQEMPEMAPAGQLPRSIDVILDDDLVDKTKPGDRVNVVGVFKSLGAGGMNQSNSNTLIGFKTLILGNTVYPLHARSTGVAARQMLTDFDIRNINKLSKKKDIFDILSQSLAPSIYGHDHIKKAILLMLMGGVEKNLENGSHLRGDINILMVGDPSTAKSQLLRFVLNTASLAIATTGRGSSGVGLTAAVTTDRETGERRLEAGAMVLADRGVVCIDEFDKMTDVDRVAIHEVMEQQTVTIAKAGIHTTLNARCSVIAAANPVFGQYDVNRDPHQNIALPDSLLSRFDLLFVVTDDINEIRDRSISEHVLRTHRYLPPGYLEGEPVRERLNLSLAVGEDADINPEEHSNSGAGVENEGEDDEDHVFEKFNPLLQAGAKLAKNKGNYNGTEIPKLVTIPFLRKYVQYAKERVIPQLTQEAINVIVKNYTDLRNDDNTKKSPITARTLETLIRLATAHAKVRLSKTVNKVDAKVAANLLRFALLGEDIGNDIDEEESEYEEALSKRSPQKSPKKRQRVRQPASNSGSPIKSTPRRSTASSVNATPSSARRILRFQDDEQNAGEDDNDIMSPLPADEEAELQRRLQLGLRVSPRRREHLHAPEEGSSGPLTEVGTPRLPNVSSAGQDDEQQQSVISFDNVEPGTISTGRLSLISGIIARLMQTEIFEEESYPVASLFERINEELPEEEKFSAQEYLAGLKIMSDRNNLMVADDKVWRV
T2 sequence (P53091 whole entry, chain 5 of 3): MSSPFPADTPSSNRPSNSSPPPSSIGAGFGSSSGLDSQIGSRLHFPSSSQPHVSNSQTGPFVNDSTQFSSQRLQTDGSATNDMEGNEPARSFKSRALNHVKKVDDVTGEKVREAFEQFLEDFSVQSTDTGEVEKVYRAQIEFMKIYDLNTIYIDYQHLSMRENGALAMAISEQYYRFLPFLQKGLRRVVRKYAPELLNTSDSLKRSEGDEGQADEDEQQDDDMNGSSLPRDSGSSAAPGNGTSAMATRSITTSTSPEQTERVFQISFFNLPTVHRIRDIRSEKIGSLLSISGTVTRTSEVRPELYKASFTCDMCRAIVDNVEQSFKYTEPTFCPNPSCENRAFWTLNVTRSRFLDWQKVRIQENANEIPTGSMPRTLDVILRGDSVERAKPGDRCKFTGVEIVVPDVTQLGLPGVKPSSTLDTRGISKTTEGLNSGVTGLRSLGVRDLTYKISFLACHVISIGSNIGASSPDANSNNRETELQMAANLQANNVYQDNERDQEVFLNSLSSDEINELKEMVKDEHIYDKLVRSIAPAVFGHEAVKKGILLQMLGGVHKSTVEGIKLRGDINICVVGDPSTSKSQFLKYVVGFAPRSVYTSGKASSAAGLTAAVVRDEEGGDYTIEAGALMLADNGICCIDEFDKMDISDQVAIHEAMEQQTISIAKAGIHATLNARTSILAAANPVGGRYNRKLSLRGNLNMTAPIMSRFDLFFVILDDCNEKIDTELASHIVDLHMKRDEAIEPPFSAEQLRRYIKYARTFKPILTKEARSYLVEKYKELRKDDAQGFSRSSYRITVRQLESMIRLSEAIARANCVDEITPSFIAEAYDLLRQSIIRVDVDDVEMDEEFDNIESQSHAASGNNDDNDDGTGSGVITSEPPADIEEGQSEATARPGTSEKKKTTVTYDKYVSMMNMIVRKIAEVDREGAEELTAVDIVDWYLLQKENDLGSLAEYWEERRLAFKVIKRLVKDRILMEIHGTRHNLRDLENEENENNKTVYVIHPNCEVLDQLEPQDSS
Nature of the assay: pull-down; pre-RC pulldown: 150 nM ORC, 300 nM Cdc6, 150 nM Cdt1, 150 nM MCM2-7 and 200 nM 290 bp ARS1 DNA in solution, anti-HA beads (HA-Mcm3), low salt wash, HA peptide elution.

The target of a further assay is T3, MCM2-7-ΔC5 (S. cerevisiae, UniProt P29469 1-868; P24279 1-971; P30665 1-933; P29496 1-692; P53091 1-1017; P38132 …).
T3 construct: Mcm2, S. cerevisiae; Mcm3, S. cerevisiae; Mcm4, S. cerevisiae; Mcm5, S. cerevisiae, deletion of residues 693-775 (C-terminal extension C5: linker and WHD); Mcm6, S. cerevisiae; Mcm7, S. cerevisiae; also called mcm5 (Δ693-775); copies: + + + + +
T3 sequence (P29469 whole entry, stated change not applied, chain 1 of 3, the tested form may be a part): as the sequence (P29469 whole entry, chain 1 of 3) above
T3 sequence (P24279 whole entry, stated change not applied, chain 2 of 3, the tested form may be a part): as the sequence (P24279 whole entry, chain 2 of 3) above
T3 sequence (P53091 whole entry, stated change not applied, chain 5 of 3, the tested form may be a part): as the sequence (P53091 whole entry, chain 5 of 3) above
The description is as above.

In a further assay the target is T4, Mcm4 (S. cerevisiae, UniProt P30665 1-933).
T4 construct: Mcm4, S. cerevisiae; subunit of the MCM2-7 hexamer; source: S. cerevisiae, galactose-induced, purified as a subunit of MCM2-7 (anti-HA beads, HA peptide, gel filtration)
T4 sequence: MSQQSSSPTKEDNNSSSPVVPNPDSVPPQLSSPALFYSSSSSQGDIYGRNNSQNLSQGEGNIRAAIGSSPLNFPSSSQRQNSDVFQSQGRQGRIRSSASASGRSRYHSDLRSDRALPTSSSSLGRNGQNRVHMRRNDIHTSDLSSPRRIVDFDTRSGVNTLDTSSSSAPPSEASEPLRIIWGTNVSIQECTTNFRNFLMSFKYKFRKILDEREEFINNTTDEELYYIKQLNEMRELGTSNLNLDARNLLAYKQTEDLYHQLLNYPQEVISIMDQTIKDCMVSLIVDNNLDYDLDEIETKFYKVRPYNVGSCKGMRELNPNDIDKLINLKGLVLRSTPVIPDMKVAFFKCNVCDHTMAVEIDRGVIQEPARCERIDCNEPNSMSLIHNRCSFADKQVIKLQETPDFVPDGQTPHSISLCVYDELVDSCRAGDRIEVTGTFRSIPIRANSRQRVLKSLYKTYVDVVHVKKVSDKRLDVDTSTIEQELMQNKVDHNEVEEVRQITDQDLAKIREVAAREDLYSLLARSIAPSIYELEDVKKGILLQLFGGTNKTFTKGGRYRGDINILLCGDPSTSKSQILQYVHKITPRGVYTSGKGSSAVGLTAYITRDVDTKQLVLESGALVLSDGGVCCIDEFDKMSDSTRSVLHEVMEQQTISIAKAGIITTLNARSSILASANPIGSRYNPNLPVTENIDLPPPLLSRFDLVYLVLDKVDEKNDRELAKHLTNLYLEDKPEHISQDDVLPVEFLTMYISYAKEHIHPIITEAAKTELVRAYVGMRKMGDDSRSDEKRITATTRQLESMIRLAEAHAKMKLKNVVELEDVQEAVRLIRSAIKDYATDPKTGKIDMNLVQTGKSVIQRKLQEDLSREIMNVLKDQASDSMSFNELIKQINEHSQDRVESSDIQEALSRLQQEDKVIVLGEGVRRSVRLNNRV
The experiment in a line: cryo-EM structure; closed-gate OCCM (ORC-Cdc6-Cdt1-MCM2-7) on ARS1 DNA with ATPγS; focused 3D classification of the particles of ref. 13; about 10% of the particles; 6.1 Å.

The next assay deals with T5, Mcm3 (HA-tagged) (S. cerevisiae, UniProt P24279 1-971).
T5 construct: Mcm3, S. cerevisiae; subunit of the MCM2-7 hexamer; bait of the anti-HA bead pulldowns; source: S. cerevisiae, galactose-induced, purified as a subunit of MCM2-7 (anti-HA beads, HA peptide, gel filtration)
T5 sequence (P24279 whole entry): as the sequence (P24279 whole entry, chain 2 of 3) above
The experiment in a line: pull-down; 150 nM MCM2-7 alone in pre-RC buffer, bound to anti-HA magnetic beads by the HA-tag on Mcm3, low salt wash (pre-RC buffer), HA peptide elution, silver stain.

A further assay has as its target T6, Mcm5 (S. cerevisiae, UniProt P29496 1-775).
T6 construct: Mcm5, S. cerevisiae; subunit of the MCM2-7 hexamer; source: S. cerevisiae, galactose-induced, purified as a subunit of MCM2-7 (anti-HA beads, HA peptide, gel filtration)
T6 sequence: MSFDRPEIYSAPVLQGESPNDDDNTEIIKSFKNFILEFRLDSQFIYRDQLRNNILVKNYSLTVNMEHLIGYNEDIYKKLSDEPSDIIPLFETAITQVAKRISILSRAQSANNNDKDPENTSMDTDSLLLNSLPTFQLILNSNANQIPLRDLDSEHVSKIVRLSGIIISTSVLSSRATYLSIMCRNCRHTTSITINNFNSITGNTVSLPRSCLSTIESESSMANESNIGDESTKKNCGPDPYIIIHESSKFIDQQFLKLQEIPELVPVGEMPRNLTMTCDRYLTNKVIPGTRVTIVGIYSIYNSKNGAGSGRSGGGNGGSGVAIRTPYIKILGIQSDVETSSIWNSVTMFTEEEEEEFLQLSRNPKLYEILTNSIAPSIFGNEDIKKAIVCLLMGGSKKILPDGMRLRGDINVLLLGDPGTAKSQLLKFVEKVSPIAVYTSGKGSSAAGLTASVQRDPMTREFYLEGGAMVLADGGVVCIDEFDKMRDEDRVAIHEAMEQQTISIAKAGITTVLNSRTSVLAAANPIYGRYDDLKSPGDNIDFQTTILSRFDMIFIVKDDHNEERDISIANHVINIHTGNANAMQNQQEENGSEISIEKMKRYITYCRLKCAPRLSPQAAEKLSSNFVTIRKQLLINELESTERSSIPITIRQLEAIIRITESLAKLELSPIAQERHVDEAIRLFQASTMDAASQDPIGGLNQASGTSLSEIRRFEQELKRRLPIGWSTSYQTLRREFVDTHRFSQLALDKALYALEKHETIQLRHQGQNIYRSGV
Nature of the assay: cryo-EM structure; closed-gate OCCM (ORC-Cdc6-Cdt1-MCM2-7) on ARS1 DNA with ATPγS; focused 3D classification of the particles of ref. 13; about 10% of the particles; 6.1 Å.

B1: Cdc6 (natural protein)
chain: MSAIPITPTKRIRRNLFDDAPATPPRPLKRKKLQFTDVTPESSPEKLQFGSQSIFLRTKALLQKSSELVNLNSSDGALPARTAEYEQVMNFLAKAISEHRSDSLYITGPPGTGKTAQLDMIIRQKFQSLPLSLSTPRSKDVLRHTNPNLQNLSWFELPDGRLESVAVTSINCISLGEPSSIFQKIFDSFQDLNGPTLQIKNMQHLQKFLEPYHKKTTFVVVLDEMDRLLHANTSETQSVRTILELFLLAKLPTVSFVLIGMANSLDMKDRFLSRLNLDRGLLPQTIVFQPYTAEQMYEIVIQKMSSLPTIIFQPMAIKFAAKKCAGNTGDLRKLFDVLRGSIEIYELEKRFLLSPTRGSLNSAQVPLTPTTSPVKKSYPEPQGKIGLNYIAKVFSKFVNNNSTRTRIAKLNIQQKLILCTIIQSLKLNSDATIDESFDHYIKAITKTDTLAPLQRNEFLEICTILETCGLVSIKKTKCKGKTKRFVDKIDVDLDMREFYDEMTKISILKPFLH
notes: Cdc6; also called WT Cdc6; source: E. coli BL21 codon-plus, purified (glutathione-agarose, PreScission Protease, hydroxyapatite)
For B1, the binding result (in assay [1]; with MCM2-7 (wild type); with MCM2-7-ΔC5) was “binds” in each case.

B2: Mcm7 (natural protein, S. cerevisiae)
chain: MSAALPSIQLPVDYNNLFNEITDFLVTFKQDTLSSDATRNENEDENLDAENIEQHLLEKGPKYMAMLQKVANRELNSVIIDLDDILQYQNEKFLQGTQADDLVSAIQQNANHFTELFCRAIDNNMPLPTKEIDYKDDVLDVILNQRRLRNERMLSDRTNEIRSENLMDTTMDPPSSMNDALREVVEDETELFPPNLTRRYFLYFKPLSQNCARRYRKKAISSKPLSVRQIKGDFLGQLITVRGIITRVSDVKPAVEVIAYTCDQCGYEVFQEVNSRTFTPLSECTSEECSQNQTKGQLFMSTRASKFSAFQECKIQELSQQVPVGHIPRSLNIHVNGTLVRSLSPGDIVDVTGIFLPAPYTGFKALKAGLLTETYLEAQFVRQHKKKFASFSLTSDVEERVMELITSGDVYNRLAKSIAPEIYGNLDVKKALLLLLVGGVDKRVGDGMKIRGDINVCLMGDPGVAKSQLLKAICKISPRGVYTTGKGSSGVGLTAAVMKDPVTDEMILEGGALVLADNGICCIDEFDKMDESDRTAIHEVMEQQTISISKAGINTTLNARTSILAAANPLYGRYNPRLSPLDNINLPAALLSRFDILFLMLDIPSRDDDEKLAEHVTYVHMHNKQPDLDFTPVEPSKMREYIAYAKTKRPVMSEAVNDYVVQAYIRLRQDSKREMDSKFSFGQATPRTLLGIIRLSQALAKLRLADMVDIDDVEEALRLVRVSKESLYQETNKSKEDESPTTKIFTIIKKMLQETGKNTLSYENIVKTVRLRGFTMLQLSNCIQEYSYLNVWHLINEGNTLKFVDDGTMDTDQEDSLVSTPKLAPQTTASANVSAQDSDIDLQDA
notes: Mcm7, S. cerevisiae; subunit of the MCM2-7 hexamer; source: S. cerevisiae, galactose-induced, purified as a subunit of MCM2-7 (anti-HA beads, HA peptide, gel filtration)
On to B2, for which the binding result in the assay with Mcm4 and in the assay with Mcm3 (HA-tagged) was “binds” in each case.

B3: Orc3 (natural protein)
chain: MSDLNQSKKMNVSEFADAQRSHYTVYPSLPQSNKNDKHIPFVKLLSGKESEVNVEKRWELYHQLHSHFHDQVDHIIDNIEADLKAEISDLLYSETTQKRRCFNTIFLLGSDSTTKIELKDESSRYNVLIELTPKESPNVRMMLRRSMYKLYSAADAEEHPTIKYEDINDEDGDFTEQNNDVSYDLSLVENFKRLFGKDLAMVFNFKDVDSINFNTLDNFIILLKSAFKYDHVKISLIFNINTNLSNIEKNLRQSTIRLLKRNYHKLDVSSNKGFKYGNQIFQSFLDTVDGKLNLSDRFVEFILSKMANNTNHNLQLLTKMLDYSLMSYFFQNAFSVFIDPVNVDFLNDDYLKILSRCPTFMFFVEGLIKQHAPADEILSLLTNKNRGLEEFFVEFLVRENPINGHAKFVARFLEEELNITNFNLIELYHNLLIGKLDSYLDRWSACKEYKDRLHFEPIDTIFQELFTLDNRSGLLTQSIFPSYKSNIEDNLLSWEQVLPSLDKENYDTLSGDLDKIMAPVLGQLFKLYREANMTINIYDFYIAFRETLPKEEILNFIRKDPSNTKLLELAETPDAFDKVALILFMQAIFAFENMGLIKFQSTKSYDLVEKCVWRGI
notes: Orc3; subunit of ORC; source: Hi-5 cells, baculovirus, purified as a subunit of ORC
For B3, in the assay with Mcm5, the binding result is reported as “binds”.

B4: Mcm5 lacking its C-terminus (subunit of MCM2-7-ΔC5) (domain or fragment, S. cerevisiae, UniProt P29496 1-692, looked up)
chain: MSFDRPEIYSAPVLQGESPNDDDNTEIIKSFKNFILEFRLDSQFIYRDQLRNNILVKNYSLTVNMEHLIGYNEDIYKKLSDEPSDIIPLFETAITQVAKRISILSRAQSANNNDKDPENTSMDTDSLLLNSLPTFQLILNSNANQIPLRDLDSEHVSKIVRLSGIIISTSVLSSRATYLSIMCRNCRHTTSITINNFNSITGNTVSLPRSCLSTIESESSMANESNIGDESTKKNCGPDPYIIIHESSKFIDQQFLKLQEIPELVPVGEMPRNLTMTCDRYLTNKVIPGTRVTIVGIYSIYNSKNGAGSGRSGGGNGGSGVAIRTPYIKILGIQSDVETSSIWNSVTMFTEEEEEEFLQLSRNPKLYEILTNSIAPSIFGNEDIKKAIVCLLMGGSKKILPDGMRLRGDINVLLLGDPGTAKSQLLKFVEKVSPIAVYTSGKGSSAAGLTASVQRDPMTREFYLEGGAMVLADGGVVCIDEFDKMRDEDRVAIHEAMEQQTISIAKAGITTVLNSRTSVLAAANPIYGRYDDLKSPGDNIDFQTTILSRFDMIFIVKDDHNEERDISIANHVINIHTGNANAMQNQQEENGSEISIEKMKRYITYCRLKCAPRLSPQAAEKLSSNFVTIRKQLLINELESTERSSIPITIRQLEAIIRITESLAKLELSPIAQERHVDEAIRLFQASTMDAA
notes: Mcm5, S. cerevisiae, deletion of residues 693-775 (C5); also called mcm5ΔC5; mcm5 (Δ693-775); source: S. cerevisiae, galactose-induced, purified as a subunit of MCM2-7-ΔC5 (anti-HA beads, HA peptide, gel filtration)
For the molecule B4, the binding result with Mcm3 (HA-tagged) was “binds”.
